Assay results reported in US20060204498A1 (MERCK SERONO, published 2006).
Positions count from the first letter of the chain named.

Columns and labels:
human CXCR3 [1] = molecular target: T1, human CXCR3 (human, UniProt P49682 1-368); assay: equilibrium competition receptor binding, SPA, [125I]-CXCL11 tracer, membranes of CXCR3-expressing HEK cells
T1 construct: whole, on cells; in FACS and chemotaxis on whole transfected HEK or L1.2 cells; also called GPR9
T1 sequence (looked up): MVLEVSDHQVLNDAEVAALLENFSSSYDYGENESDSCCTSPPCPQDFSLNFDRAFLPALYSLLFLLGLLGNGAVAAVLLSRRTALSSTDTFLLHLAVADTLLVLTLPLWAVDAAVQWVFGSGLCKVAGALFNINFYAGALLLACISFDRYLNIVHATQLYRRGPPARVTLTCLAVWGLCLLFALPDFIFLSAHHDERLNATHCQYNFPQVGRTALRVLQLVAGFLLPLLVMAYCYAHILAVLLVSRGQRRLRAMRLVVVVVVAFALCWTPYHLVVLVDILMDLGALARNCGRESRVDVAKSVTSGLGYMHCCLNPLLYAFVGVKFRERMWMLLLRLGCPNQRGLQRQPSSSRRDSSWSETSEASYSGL
Procedure: The assays were carried out on membranes from HEK cells stably expressing CXCR3 using a Scintillation Proximity Assay (SPA), with [¹²⁵I]-CXCL11 as tracer. Radiolabelled CXCL11 (recombinant human I-TAC; Peprotech) was generated and tested according to the [¹²⁵I] supplier (Amersham; specific activity of […]), also to check for CXCR3-expressing HEK and L1.2 clones positively stained during FACS analysis.
Competitors were prepared by serial dilutions (range from 10⁻⁶ to 10⁻¹² M) of the unlabelled CXCL11, or one of its mutant, in the binding buffer (50 mM HEPES pH 7.2, 1 mM CaCl₂, 5 mM MgCl₂, 0.15 M NaCl and 0.5% Bovine Serum Albumin). Wheat germ SPA beads (Amersham) were solubilised in PBS to 50 mg/ml, and diluted in the binding buffer to a 10 mg/ml, and the final concentration in the assay was 0.25 mg/well. Cell membranes expressing CXCR3 were stored at −80° C. and diluted in the binding buffer to 20 μg/ml. Equal volumes of membrane and beads stocks were mixed before performing the assay to reduce background. The final membrane concentration was 5 μg/well and that of [¹²⁵I]-CXCL11 was 0.05 nM. The plates were incubated at room temperature with agitation for 4 hours. Radioactivity was counted (1 minute/well) in a beta counter. Data from triplicate samples were analysed using Prism® software (GraphPad).
Finally, an equilibrium competition receptor-binding assay was performed to compare the properties of the muteins on the binding of the specific receptor CXCR3 (FIG. 3). Samples containing a constant amount of radiolabelled, commercial CXCL11 were mixed with serial dilutions of CXCL11-WT, or of one of the muteins, and then incubated with membranes prepared from CXCR3-expressing HEK cells. […] Therefore, the affinity for the receptor is substantially retained in heparin-binding defective CXCL11-WT carboxyl-terminal mutants, whilst the mutations in amino-terminus affect specifically receptor binding, a feature which appears as clearly distinct.

human CXCR3 [2] = molecular target: T1, human CXCR3; assay: radioligand equilibrium binding on CXCR3-transfected HEK and L1.2 clones

B1: mature human CXCL11 (CXCL11-WT) (ligand)
chain: FPMFKRGRCLCIGPGVKAVKVADIEKASIMYPSNNCDKIEVIITLKENKGQRCLNPKSKQARLIIKKVERKNF
notes: 73 residues with no additional residues; also called hCXCL11; I-TAC
binding result (human CXCR3 [1]): binds

B2: [125I]-CXCL11 (radiolabelled recombinant human I-TAC; Peprotech) (ligand, UniProt O14625 22-94, looked up)
chain: B1 chain
modifications: [125I] label, site not stated
notes: Commercial protein; also called Radiolabelled CXCL11; radiolabelled, commercial CXCL11
binding result (human CXCR3 [2]): binds

B3: CXCL11-3B3 (ligand)
chain: B1 chain with K57A, K59A, R62A
notes: Mutein of mature human CXCL11; E. coli, leader cleaved with caspase 8; also called CXCLII-3B3
reduction in the affinity for CXCR3 against CXCL11-WT (human CXCR3 [1]): ≤ 1 order of magnitude

B4: CXCL11-4B4 (ligand)
chain: B1 chain with K66A, K67A, R70A, K71A
notes: Mutein of mature human CXCL11; E. coli, leader cleaved with caspase 8; also called CXCLII-4B4
reduction in the affinity for CXCR3 against CXCL11-WT (human CXCR3 [1]): ≤ 1 order of magnitude

B5: CXCL11-2B3 (ligand)
chain: B1 chain with K46A, K49A, R52A
notes: Mutein of mature human CXCL11; E. coli, leader cleaved with caspase 8; also called CXCLII-2B3
reduction in the affinity for CXCR3 against CXCL11-WT (human CXCR3 [1]): ≤ 1 order of magnitude
